How the values were obtained:
[1] = target: T1, COQ3 (tetrapod ancestral) (Tetrapoda, UniProt Z9LPW8APZ1); test: microscale thermophoresis; format: binding
T1 construct: expressed in E. coli
T1 sequence (Z9LPW8APZ1 39-362): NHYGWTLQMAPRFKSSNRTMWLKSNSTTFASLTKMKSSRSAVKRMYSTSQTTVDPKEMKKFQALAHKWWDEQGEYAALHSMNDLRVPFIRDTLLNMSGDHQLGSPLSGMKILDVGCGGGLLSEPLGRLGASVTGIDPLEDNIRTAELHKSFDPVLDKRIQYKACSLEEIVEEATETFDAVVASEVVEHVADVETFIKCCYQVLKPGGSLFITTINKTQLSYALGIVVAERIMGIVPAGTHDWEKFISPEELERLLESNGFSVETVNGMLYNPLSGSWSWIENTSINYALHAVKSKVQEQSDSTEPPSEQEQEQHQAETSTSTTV

[2] = tested on: CC(C)=CCc1cc(C(=O)O)cc(O)c1O; test: purified protein; details: 2 mM SAM, no added Mg2+, pH 7.2, 25 °C
COc1cc(O)cc(CC=C(C)C)c1O = test: purified protein; details: 1 mM SAM, 150 uM NADH, 25 °C
[3] = tested on: NC(=O)C1=CN([C@@H]2O[C@H](COP(=O)(O)OP(=O)(O)OC[C@H]3O[C@@H](n4cnc5c(N)ncnc54)[C@H](O)[C@@H]3O)[C@@H](O)[C@H]2O)C=CC1; test: purified protein; details: 700 uM non-prenylated 5ox, without COQ9, 0.05% DDM, pH 7.2, 25 °C
[4] = tested on: Nc1ncnc2c1ncn2[C@@H]1O[C@H](COP(=O)(O)OP(=O)(O)OP(=O)(O)O)[C@@H](O)[C@H]1O; test: ATPase activity (Malachite green phosphate); format: biochemical, Tetrapoda; details: basal ATPase; no COQ partner or intermediate

Molecule `CC(C)=CCc1cc(C(=O)O)cc(O)c1O` [compound 2, 3,4-dihydroxy-5-(3-methylbut-2-en-1-yl)benzoic acid] has a Kd [1] of 6.5 µM.

COQ3 (tetrapod ancestral) (Tetrapoda) showed a Km [2] of 887.9 µM and a kcat [2] of 0.0467 s⁻¹.

In the case of COQ5 (tetrapod ancestral) (Tetrapoda), the Km (COc1cc(O)cc(CC=C(C)C)c1O) is reported as 444 µM and the kcat (COc1cc(O)cc(CC=C(C)C)c1O) is reported as 0.04 s⁻¹.

Work on COQ7 (tetrapod ancestral) (Tetrapoda) yielded a Km [3] of 141.7 µM and a kcat [3] of 0.02 s⁻¹.

Work on COQ8B (tetrapod ancestral) (Tetrapoda) yielded a Km [4] of 26.6 µM and a kcat [4] of 0.0067 s⁻¹.

Source: paper PMC7615680, “In vitro construction of the COQ metabolon unveils the molecular determinants of coenzyme Q biosynthesis” (Nature catalysis, 2024)
